Laboratory results published in US6403087.

Tests used:
[1] = molecular target: surface TNF receptors on HT29 cells; experiment: cell-based or functional assay
[2] = molecular target: murine surface LT ligand on PMA-activated TIMI-4 cells (mouse) (UniProt P09225); experiment: FACS on TIMI-4 cells; mAb at 30.0 µg/ml preincubated, washed, then 1 µg/ml mLT-β-R-Fc
[3] = molecular target: murine surface LT ligand on PMA-activated TIMI-4 cells (mouse) (UniProt P09225); experiment: FACS on TIMI-4 cells; mAb at 0.3 µg/ml preincubated, washed, then 1 µg/ml mLT-β-R-Fc
[4] = molecular target: murine surface LT ligand on PMA-activated TIMI-4 cells (mouse) (UniProt P09225); experiment: FACS on TIMI-4 cells; mAb at 10.0 µg/ml preincubated, washed, then 1 µg/ml mLT-β-R-Fc
[5] = molecular target: murine surface LT ligand on PMA-activated TIMI-4 cells (mouse) (UniProt P09225); experiment: FACS on TIMI-4 cells; mAb at 0.03 µg/ml preincubated, washed, then 1 µg/ml mLT-β-R-Fc
[6] = molecular target: murine surface LT ligand on PMA-activated TIMI-4 cells (mouse) (UniProt P09225); experiment: FACS on TIMI-4 cells; mAb at 1.0 µg/ml preincubated, washed, then 1 µg/ml mLT-β-R-Fc
[7] = molecular target: murine surface LT ligand on PMA-activated TIMI-4 cells (mouse) (UniProt P09225); experiment: FACS on TIMI-4 cells; mAb at 0.1 µg/ml preincubated, washed, then 1 µg/ml mLT-β-R-Fc
[8] = molecular target: murine surface LT ligand on PMA-activated TIMI-4 cells (mouse) (UniProt P09225); experiment: FACS on TIMI-4 cells; mAb at 3.0 µg/ml preincubated, washed, then 1 µg/ml mLT-β-R-Fc
[9] = molecular target: murine surface LT ligand on PMA-activated TIMI-4 cells (mouse) (UniProt P09225); experiment: FACS on TIMI-4 cells; mAb at 0.01 µg/ml preincubated, washed, then 1 µg/ml mLT-β-R-Fc
[10] = molecular target: murine surface LT ligand on PMA-activated TIMI-4 cells (mouse) (UniProt P09225); experiment: FACS on TIMI-4 cells; mAb at 100.0 µg/ml preincubated, washed, then 1 µg/ml mLT-β-R-Fc

murine surface LT ligand on PMA-activated TIMI-4 cells (mouse), sequence (P09225 34-202, chain 1 of 2): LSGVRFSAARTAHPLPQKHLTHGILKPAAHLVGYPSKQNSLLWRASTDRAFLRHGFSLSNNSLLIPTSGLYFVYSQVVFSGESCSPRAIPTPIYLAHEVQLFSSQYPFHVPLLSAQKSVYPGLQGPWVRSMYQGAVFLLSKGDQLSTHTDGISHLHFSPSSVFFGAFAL
murine surface LT ligand on PMA-activated TIMI-4 cells (mouse), sequence (P41155 whole entry, chain 2 of 2, further chain): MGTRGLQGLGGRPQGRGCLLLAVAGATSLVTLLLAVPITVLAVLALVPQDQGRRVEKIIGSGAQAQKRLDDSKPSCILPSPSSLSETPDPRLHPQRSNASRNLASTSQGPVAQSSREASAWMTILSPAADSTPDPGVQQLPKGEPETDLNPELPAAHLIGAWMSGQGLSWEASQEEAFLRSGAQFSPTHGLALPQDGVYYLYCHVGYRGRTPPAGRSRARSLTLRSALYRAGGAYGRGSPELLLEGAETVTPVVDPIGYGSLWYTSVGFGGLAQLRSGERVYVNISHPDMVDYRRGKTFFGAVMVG
hTNF, sequence (P01375 77-233 limits assumed): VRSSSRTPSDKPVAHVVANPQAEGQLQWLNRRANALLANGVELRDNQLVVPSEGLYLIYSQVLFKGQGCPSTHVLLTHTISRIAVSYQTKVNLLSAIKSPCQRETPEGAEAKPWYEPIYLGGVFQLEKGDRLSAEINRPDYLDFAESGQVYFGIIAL

| % Inh (Percent Inhibition) of mLT-β-R-Fc binding [2] | MFCI (Mean Fluorescence Channel No.) of bound mLT-β-R-Fc [2] | % Inh (Percent Inhibition) of mLT-β-R-Fc binding [3] | MFCI (Mean Fluorescence Channel No.) of bound mLT-β-R-Fc [3] | % Inh (Percent Inhibition) of mLT-β-R-Fc binding [4] | MFCI (Mean Fluorescence Channel No.) of bound mLT-β-R-Fc [4] | % Inh (Percent Inhibition) of mLT-β-R-Fc binding [5] | MFCI (Mean Fluorescence Channel No.) of bound mLT-β-R-Fc [5] | % Inh (Percent Inhibition) of mLT-β-R-Fc binding [6] | MFCI (Mean Fluorescence Channel No.) of bound mLT-β-R-Fc [6] | % Inh (Percent Inhibition) of mLT-β-R-Fc binding [7] | MFCI (Mean Fluorescence Channel No.) of bound mLT-β-R-Fc [7] | % Inh (Percent Inhibition) of mLT-β-R-Fc binding [8] | MFCI (Mean Fluorescence Channel No.) of bound mLT-β-R-Fc [8] | % Inh (Percent Inhibition) of mLT-β-R-Fc binding [9] | MFCI (Mean Fluorescence Channel No.) of bound mLT-β-R-Fc [9] | % Inh (Percent Inhibition) of mLT-β-R-Fc binding [10] | MFCI (Mean Fluorescence Channel No.) of bound mLT-β-R-Fc [10] | Substance | Concentration of Cytotoxic Agent (ng/ml) Resulting in 50% Growth Inhibition of HT29 cells, in the presence of 5 µg/ml hu-IgG control [1] |
| --- | --- | --- | --- | --- | --- | --- | --- | --- | --- | --- | --- | --- | --- | --- | --- | --- | --- | --- | --- |
|  |  |  |  |  |  |  |  |  |  |  |  |  |  |  |  |  |  | hTNF (from UniProt P01375 77-233) (ligand) | 0.08 ng/mL |
| 0% | 94 channel no. | 2% | 84 channel no. | 0% | 95 channel no. | 0% | 86 channel no. | 0% | 89 channel no. | 0% | 86 channel no. | 0% | 88 channel no. | 2% | 84 channel no. | 0% | 92 channel no. | hamster anti-mLT-α mAb AF.B3 (antibody) |  |
|  |  |  |  |  |  |  |  |  |  |  |  |  |  |  |  |  |  | hLT-α (from UniProt P01374 35-205) (ligand) | 3 ng/mL |
| 95% | 10 channel no. | 62% | 36 channel no. | 94% | 11 channel no. | 23% | 67 channel no. | 71% | 29 channel no. | 44% | 51 channel no. | 86% | 17 channel no. | 18% | 71 channel no. | 98% | 8 channel no. | hamster anti-mouse LT-α/β mAb BB.F6 (antibody) |  |
